Four molecules from patent US20240254222A1 can be followed below.

The experiment concerns the target Human Semaphorin3G (Abnova) (human) (UniProt Q9NS98). As to the kind of experiment: ELISA, coated GST-Sema3G, antibody 0.00015-10 ug/ml. (In general: ELISA stands for enzyme-linked immunosorbent assay.)

One may read the EC50 as the concentration needed to bring the measured effect to its halfway point.

Chain of Human Semaphorin3G (Abnova) (human) (Q9NS98 23-782 limits assumed, form in doubt): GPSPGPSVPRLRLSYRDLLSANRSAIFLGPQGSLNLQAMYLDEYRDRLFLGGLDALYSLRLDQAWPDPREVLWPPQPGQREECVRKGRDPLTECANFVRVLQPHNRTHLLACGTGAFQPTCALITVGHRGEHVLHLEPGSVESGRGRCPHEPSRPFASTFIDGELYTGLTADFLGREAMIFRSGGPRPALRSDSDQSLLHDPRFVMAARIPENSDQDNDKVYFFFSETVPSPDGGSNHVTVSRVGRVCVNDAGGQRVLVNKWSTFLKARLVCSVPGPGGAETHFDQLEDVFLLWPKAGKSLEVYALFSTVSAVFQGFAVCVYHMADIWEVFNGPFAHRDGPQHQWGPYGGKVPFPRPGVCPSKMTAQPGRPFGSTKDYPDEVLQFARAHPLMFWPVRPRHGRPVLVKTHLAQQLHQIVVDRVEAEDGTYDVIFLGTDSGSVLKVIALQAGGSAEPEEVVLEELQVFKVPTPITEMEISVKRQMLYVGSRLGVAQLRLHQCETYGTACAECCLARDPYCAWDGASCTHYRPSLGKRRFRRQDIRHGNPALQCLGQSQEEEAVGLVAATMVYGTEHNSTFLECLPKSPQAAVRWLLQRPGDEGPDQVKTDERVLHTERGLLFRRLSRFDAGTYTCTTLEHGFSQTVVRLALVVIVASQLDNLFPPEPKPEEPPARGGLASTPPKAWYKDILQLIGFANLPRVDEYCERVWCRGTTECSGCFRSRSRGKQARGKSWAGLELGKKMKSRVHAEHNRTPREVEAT

B1: TPP-30791 (antibody, human IgG1, kappa, V domains shown)
VH: EVQLVESGGGLLQLGGSLRLSCAASGFTFSSYYMSWVRQAPGKGLEWVSTIIKSGGYAYYPDSVKDRFTISRDNSKNTLNLQMNSLRAEDTAVYYCVKGGQGAMDYWGQGTTVTVSS
VL: EIVLTQSPATLSLSPGERATLSCRASQSIGDYLHWYQQKPGQAPRLLIKYASQSISGIPARFSGSGSGTDFTLTISSLEPEDFAVYYCQQGYSFPYTFGGGTKLEIKR
Turning to B1, the EC50 was > 66.7 µM.

B2: TPP-30790 (antibody, human IgG1, kappa, V domains shown)
VH: EVQLVESGGGLVQLGGSLRLSCAASGFTFSSYYMSWVRQAPGKGLEWVSTIIKSGGYAYYPDSVKDRFTISRDNSKNTLYLQMNSLRAEDTAVYYCVKGGQGAMDYWGQGTTVTVSS
VL: EIVLTQSPATLSLSPGERATLSCRASQSIGDYLHWYQQKPGQAPRLLIYYASQSISGIPARFSGSGSGTDFTLTISSLEPEDFAVYYCQQGYSFPYTFGGGTKLEIKR
Consider B2, for which the EC50 is > 66.7 µM.

B3: TPP-30788 (antibody, human IgG1, kappa, V domains shown)
VH: EVQLVESGGGLVQPGGSLRLSCAASGFTFSSYYMSWVRQAPGKGLEWVSTIIKSGGYAYYPDSVKDRFTISRDNSKNTLYLQMSSLRAEDTAVYYCVRGGQGAMDYWGQGTTVTVSS
VL: EIVLTQSPATLSLSPGERATLSCRASQSIGDYLHWYQQKPGQAPRLLIKYASQSISGIPARFSGSGSGTDFTLTITSLEPEDFAVYYCQQGYSFPYTFGGGTKLEIKR
Regarding B3, the EC50 is > 66.7 µM.

B4: TPP-30789 (antibody, human IgG1, kappa, V domains shown)
VH: EVQLVESGGGLVQPGGSLRLSCAASGFPFSSYYMSWVRQAPGKGLEWVSTIIKSGGYAYYPDSVKDRFTISRDNSKNTLYLQMSSLRAEDTAVYYCVRGGQGAMDYWGQGTTVTVSS
VL: EIVLTQSPATLSLSPGERATLSCRASQSIGDYLHWYQQKPGQAPRLLIKYASQSISGIPARFSGSGSGTDFTLTITSLEPEDFAVYYCQQGYSFPYTFGGGTKLEIKR
Turning to B4, the EC50 was > 66.7 µM.
